The experiment has as its target [Ag] (UniProt P04626). Briefly: yeast display titration (flow cytometry); Lip2prepro leader, Sag1p fusion. For orientation: Flow cytometry measures light scatter and fluorescence of single cells or particles in a stream.

Substance preproA1-Herceptin scFv registered a Kd of 2.51 nM.

The Kd is a measure of binding affinity in units of concentration.

The values are drawn from US20130096281A1.
